± gives the uncertainty stated by the source.
Assay: self-splicing fitness, log relative to wild type (ln ratio); higher = more splicing; Tetrahymena group I intron in knt gene, E. coli kanamycin selection, DiMSum; sequences stand for … in CUCUCU…GGAGGGAAAAGUUAUCAGGCAUGCACCUGGUAGCUAGUCUUUAAACCAAUAGAUUGCAUCGGUUUAAAAGGCAAGACCGUCAAAUUGCGGGAAAGGGGUCAACAGCCGUUCAGUACCAAGUCUCAGGGGAAACUUUGAGAUGGCCUUGCAAAGGGUAUGGUAAUAAGCUGACGGACAUGGUCCUAACCACGCAGCCAAGUCCUAAGUCAACAGAUCUUCUGUUGAUAUGGAUGCAGUUCACAGACUAAAUGUCGGUCGGGGAAGAUGUAUUCUUCUCAUAAGAUAUAGUCGGACCUCUCCUUAAUGGGAGCUAGCGGAUGAAGUGAUGCAACACUGGAGCCGCUGGGAACUAAUUUGUAUGCGAAAGUAUAUUGAUUAGUUUUGGAGUACUCGUGGUCG
Summary of the method: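 Colonies from six replicate transformations of E. coli BL21(DE3) were pooled and amplicon-sequenced on an Illumina HiSeq 2500. The library placed an intron with all eight P1ex-region nucleotides randomised inside the knt kanamycin-resistance gene on pET-22b(+), and cells grew overnight at 37°C or 30°C on LB agar with or without 25 μg/mL kanamycin (plus 100 μg/mL carbenicillin, 50 μM IPTG, 0.2% rhamnose). Fitness is the DiMSum error-weighted combination of wild-type-normalised replicate fold changes, kanamycin versus none.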

GGGGAGCAAUAUUACGACGU
self-splicing fitness (ln) (30 °C): -0.89 ± 0.12 | self-splicing fitness (ln) (37 °C): -0.094 ± 0.15

UGGCAGCAAUAUUACGGUGC
self-splicing fitness (ln) (30 °C): -3.3 ± 0.23 | self-splicing fitness (ln) (37 °C): -2.79 ± 0.32

CGAUAGCAAUAUUACGUUGG
self-splicing fitness (ln) (30 °C): -1.62 ± 0.091 | self-splicing fitness (ln) (37 °C): -0.0971 ± 0.086

ACGAAGCAAUAUUACGGUGA
self-splicing fitness (ln) (30 °C): -2.33 ± 0.088 | self-splicing fitness (ln) (37 °C): -1.48 ± 0.085

CCAAAGCAAUAUUACGGGUA
self-splicing fitness (ln) (30 °C): -2.96 ± 0.24 | self-splicing fitness (ln) (37 °C): -3.34 ± 0.43

CCUCAGCAAUAUUACGCCGG
self-splicing fitness (ln) (30 °C): -3.32 ± 0.21 | self-splicing fitness (ln) (37 °C): -0.587 ± 0.15

CGUUAGCAAUAUUACGGCGC
self-splicing fitness (ln) (37 °C): -2.24 ± 0.32

CCCCAGCAAUAUUACGGAUA
self-splicing fitness (ln) (30 °C): -3.92 ± 0.24 | self-splicing fitness (ln) (37 °C): -2.65 ± 0.16

CUCCAGCAAUAUUACGAGUA
self-splicing fitness (ln) (30 °C): -2.58 ± 0.16 | self-splicing fitness (ln) (37 °C): -2.14 ± 0.14

CUGUAGCAAUAUUACGGGAC
self-splicing fitness (ln) (30 °C): -1.04 ± 0.18 | self-splicing fitness (ln) (37 °C): -0.365 ± 0.21

AAUAAGCAAUAUUACGGGCG
self-splicing fitness (ln) (30 °C): -1.29 ± 0.086 | self-splicing fitness (ln) (37 °C): -0.752 ± 0.095

GGCAAGCAAUAUUACGCGGU
self-splicing fitness (ln) (30 °C): -2.97 ± 0.14 | self-splicing fitness (ln) (37 °C): -1.37 ± 0.12

AAAGAGCAAUAUUACGAUCA
self-splicing fitness (ln) (30 °C): -3.02 ± 0.21 | self-splicing fitness (ln) (37 °C): -1.68 ± 0.14

GUAAAGCAAUAUUACGAACA
self-splicing fitness (ln) (30 °C): -0.969 ± 0.15 | self-splicing fitness (ln) (37 °C): 0.323 ± 0.16

CUGUAGCAAUAUUACGGUUC
self-splicing fitness (ln) (30 °C): -3.87 ± 0.14 | self-splicing fitness (ln) (37 °C): -3.71 ± 0.22

UUCGAGCAAUAUUACGAAGG
self-splicing fitness (ln) (30 °C): -2.09 ± 0.23 | self-splicing fitness (ln) (37 °C): -1.62 ± 0.27

AAAUAGCAAUAUUACGAUGA
self-splicing fitness (ln) (30 °C): -0.773 ± 0.096 | self-splicing fitness (ln) (37 °C): -0.0131 ± 0.11

Reference: the supplement of paper PMC7877785
